Experimental data: patent US20220306762A1 (CRYSTAL BIOSCIENCE, published 2022)
Numbering of substitutions follows the chain as printed.

T1: His-tagged mouse CD38 (ACRO Biosystems #CD8-M5223) (mouse, UniProt P56528 45-304)
T1 construct: bought recombinant protein with His tag; also called Murine
T1 sequence (looked up): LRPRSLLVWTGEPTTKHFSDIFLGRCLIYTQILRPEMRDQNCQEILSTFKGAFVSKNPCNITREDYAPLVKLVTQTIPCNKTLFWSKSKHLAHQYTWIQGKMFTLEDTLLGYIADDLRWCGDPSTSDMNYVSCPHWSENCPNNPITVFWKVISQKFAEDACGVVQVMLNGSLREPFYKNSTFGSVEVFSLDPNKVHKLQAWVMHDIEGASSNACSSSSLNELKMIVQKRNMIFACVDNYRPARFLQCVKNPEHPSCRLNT

T2: murine CD38 on transiently transfected Expi293 cells (Origene MC208001) (murine, UniProt P56528 1-304)
T2 construct: whole, on cells; also called Murine (FACs)
T2 sequence (looked up): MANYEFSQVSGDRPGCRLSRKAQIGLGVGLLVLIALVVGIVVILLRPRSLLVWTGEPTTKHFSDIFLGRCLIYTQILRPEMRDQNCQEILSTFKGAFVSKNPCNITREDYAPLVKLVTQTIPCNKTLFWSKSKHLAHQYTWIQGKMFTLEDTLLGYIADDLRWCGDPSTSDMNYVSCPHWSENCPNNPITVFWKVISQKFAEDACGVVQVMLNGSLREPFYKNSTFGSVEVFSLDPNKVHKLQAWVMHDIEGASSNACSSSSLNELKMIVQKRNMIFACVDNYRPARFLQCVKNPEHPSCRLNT

B1: 40596p1.E4 (scFv, V domains shown)
VH: EVQLLESGGGLVQPGGSLRLSCAASGFDFSGSAMSWVRQAPGKGLEYVAGLGWSGSFIYYADSVKGRSTISRDNSKNTLYLQLNSLRAEDTAVYYCARNPGFGEMDVWGQGTTVTVSS
VL: EIVLTQSPGSLSLSPGERATLSCRASQTVGSNLAWYQQKPGQAPRLLIYGASTRATDIPDRFSGSGSGTEFTLTISSLQSEDFAVYYCQQYNSWPPLTFGGGTKVEIK
notes: tested as scFv-Fc supernatant
B2: 40769p1.1.A2 (scFv, V domains shown)
VH: EVQLLESGGGLVQPGGSLRLSCAASGFLFDDYGMSWVRQAPGKGLEWVSAISYKGGSTYYADSVKGRFTISRDNSKNTLYLQMSSLRAEDTAVYYCAKDHKWNYYGMDVWGQGTTVTVSS
VL: QSVLTQPPSASGTPGQRVTISCSGSTSNIGNDNYVSWYQQLPGTAPRLLIYKDDQRPSGVPDRFSGSKSGTSASLAISGLQSEDEADYYCGTWDDRLNAWVFGGGTKLTVL
notes: tested as scFv-Fc supernatant
B3: 40769p1.1.B12 (scFv, V domains shown)
VH: EVQLLESGGGLIQPGGSLRLSCTASGFDFSSYGMHWVRQAPGKGLEWVGIISDSGGTTYYADSVKGRFTISRDNSKNTMYLQMNSLRAEDTALYYCASYIMDVWGQGITVTVSS
VL: QSVLTQPPSASGTPGQRVTISCSGSSSNVGGNSVYWYQQLPGTAPKLLFYGNHRRPSGVPDRFSGSKSGTSASLAISGLQSEDEADYYCAVWDDSLNAWVFGGGTKLTVL
notes: tested as scFv-Fc supernatant
B4: 40769p1.1.B8 (scFv, V domains shown)
VH: EVQLLESGGGLVQPGGSLRLSCAASGFTFEDYAMSWVRQAPGKGLEWVSVISSKGGSTSNADSVKGRFTISRDNSKNTLYLQMNSLRAEDTAVYYCAKGMERQYYSYNAMDVWGQGTTVTVSS
VL: QSVLTQPPSASGTPGQRVTISCSGSNSNIDVDYVYWYQQLPGTAPRLLIYKDDQRPSGVPDRFSGSKSGTSASLAISGLQSEDEADYYCATWDDNLNSWLFGGGTKLTVL
notes: tested as scFv-Fc supernatant
B5: 40769p1.1.B10 (scFv, V domains shown)
VH: EVQLLESGGGLVQPGGSLRLSCTASGITFSRFNMFWVRQAPGKGLEFVASIRDDGSWTYYADSVKGRFTISRDNSKNTLYLQMNSLRAEDTAVYYCAKDYNSKDFIYHYVMDVWGQGTTVTVSS
VL: QSVLTQPPSASGTPGQRVTISCSGRNSNIGNNVVNWYQQLPGTAPKLLIYRNQERPSGVPDRFSGSKSGTSASLAISGLQSEDEADYYCSTWDDSLNGWVFGGGTKLTVL
notes: tested as scFv-Fc supernatant
B6: 40769p1.1.G12 (scFv, V domains shown)
VH: EVQLLESGGGLVQPGGSLRLSCAASGFTFDDYVMSWVRQAPGKGLEWVSEISESDGSNKYYADSVKGRFIISRDNSKNTLYLQMNSLRAEDTAVYYCARLEPEKYYGMDVWGQGTTVTVSS
VL: B5 VL with R25S, V33L, N35S, N52H, Q53D, E54H, S90A, W99R, V100A
notes: tested as scFv-Fc supernatant
B7: 40769p1.1.G5 (scFv, V domains shown)
VH: EVQLLESGGGFVQPGGSLRLSCAASGFNFNNAWMNWVRQAPGKGLEWVGIINGDGTNTYYADSVKGRFTISRDNSKNTLYLQMSSLRAEDTAIYYCARDNKLNDYYYAMDVWGQGTTVTV
VL: QSVLTQPSSASGTPGQRVTISCSGGSSNIHANYVYWYQQLPGTAPKLLIYRNSQRPSGVPDRFSGSKSGTSASLAISGLQSEDEADYYCGTWDNILNVWVFGGGTKLTVL
notes: tested as scFv-Fc supernatant
B8: 40769p1.1.E2 (scFv, V domains shown)
VH: EVLLLESGGGLVQPGGSLRLSCAASGFTFSDYWMSWVRQAPGKGLEWVSTISISAGIIYYADSVKGRFTISRDNSKNTLYLQMNSLRAEDTAVYYCAKDNWNDYYGMDVWGQGTTVTVSS
VL: QSVLTQPPSASGTPGQRVTMSCSGNNQNIRDNYVYWYQQVPGTAPKLLIYKDDQRPSGVPDRFSGSKSGTSASLAISGLQSEDEADYYCATWDGSLKARVFGGGTKLTVL
notes: tested as scFv-Fc supernatant
B9: 40769p1.1.G10 (scFv, V domains shown)
VH: B8 VH with L3Q, S35N, I53S, S54G, A55G, G56S, I57M, Y60H, A88P
VL: B8 VL with T19N, M20I, N25S, N26S, Q27S, D31Y, K67E, K97N
notes: tested as scFv-Fc supernatant
B10: 40769p1.1.H1 (scFv, V domains shown)
VH: B8 VH with L3Q, S35N, I53S, S54G, A55G, G56S, I57M, Y60H, A88P
VL: B8 VL with T19N, M20I, N25S, N26S, Q27S, D31Y, G78E, K97N
notes: tested as scFv-Fc supernatant
B11: 40769p1.2.E3 (scFv, V domains shown)
VH: EVQLLESGGDLVQPGGSLRLSCGASGFTFSDHYMSWVRQAPGKGLEWVADISARGSNTWYADSVKGRFTISRDNSENTLYLQMNSLRAEDTAVYYCAKNWNYNYGMDVWGQGTTVTVSS
VL: QSVLTQAPSASGTPGQRVTISCSGSSIQNNYVSWYQQLPGTAPKLLIYRNFERPSGVPDRFSASKSGTSASLAISGLQSEDEADYYCASWDDSLNWVFGGGTKLTVL
notes: tested as scFv-Fc supernatant
B12: 40769p1.2.F9 (scFv, V domains shown)
VH: B11 VH
VL: B11 VL with E80G
notes: tested as scFv-Fc supernatant
B13: 40769p1.2.B4 (scFv, V domains shown)
VH: B11 VH with Q111H
VL: B11 VL
notes: tested as scFv-Fc supernatant
B14: 40769p1.1.H3 (scFv, V domains shown)
VH: EVQLLESGGGLVQPGGSLRLSCAASGFAFNDYLMSWVRQAPGKGLEWVSTISWSGGSTYYADSVKGRFTISRDNSKNTLYLQMNSLRAEDTALYYCARDRYRYNYYYFMDVWGQGTTVTV
VL: QSVLTQPPSASGTPGQRVTISCSGSTSDSPYDRIDWYQQLPGTAPKLLIYKDDQRPSGVPDRFSGSKSGTSASLAISGLQSEDEADYYCATWDAMLSAWVFGGGTKLTVL

What follows are binders tested against T3, His-tagged human CD38 (ACRO Biosystems cat #CD8-H5224) (human, UniProt P28907 43-300) (assay: ELISA, coated His-CD38).
T3 construct: bought recombinant protein with His tag

| Binder | ELISA 1 ug/ml |
| --- | --- |
| B1 | 1.93 |
| B2 | 1.61 |
| B3 | 1.56 |
| B4 | 1.64 |
| B5 | 1.5 |
| B6 | 1.45 |
| B7 | 1.72 |
| B8 | 1.65 |
| B9 | 1.75 |
| B10 | 1.86 |
| B11 | 1.59 |
| B12 | 1.47 |
| B13 | 1.55 |

Each binder was assayed against T4, His-tagged cynomolgus monkey CD38 (ACRO Biosystems cat #CD8-05223) (cynomolgus monkey, UniProt Q5VAN0 43-301) (assay: ELISA, coated His-CD38).
T4 construct: bought recombinant protein with His tag

| Binder | ELISA 1 ug/ml |
| --- | --- |
| B1 | 1.77 |
| B2 | 1.73 |
| B3 | 1.91 |
| B4 | 1.75 |
| B5 | 2.05 |
| B6 | 1.08 |
| B7 | 2.01 |
| B8 | 1.98 |
| B9 | 2.11 |
| B10 | 2.05 |
| B11 | 1.7 |
| B12 | 1.56 |
| B13 | 1.73 |

Each binder was assayed against T1, His-tagged mouse CD38 (ACRO Biosystems …) (assay: ELISA, coated His-CD38).

| Binder | ELISA 1 ug/ml |
| --- | --- |
| B1 | 1.72 |
| B2 | 0.049 |
| B14 | 0.049 |
| B3 | 0.472 |
| B4 | 0.048 |
| B5 | 0.049 |
| B6 | 0.056 |
| B10 | 0.049 |

These binders were tested against T3, His-tagged human CD38 (ACRO Biosystems …) (assay: SPR, captured scFv-Fc, His-CD38 analyte;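 further: SPR on a Carterra LSA, scFv-Fc captured by anti-human Fc on HC30M chip, His-tagged CD38 (human, mouse, cynomolgus) flowed as analyte in eight 1:2 steps from 400 nM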).

| Binder | Kd [nM] |
| --- | --- |
| B1 | 56.9 |
| B2 | 0.319 |
| B3 | 32.4 |
| B4 | 0.101 |
| B5 | 8.02 |
| B6 | 1.88 |
| B7 | 3.11 |
| B8 | 3.23 |
| B9 | 78.9 |
| B10 | 85.7 |
| B11 | 2.24 |
| B12 | 17.1 |
| B13 | 2.38 |

These binders were tested against T4, His-tagged cynomolgus monkey CD38 (ACRO …) (assay: SPR, captured scFv-Fc, His-CD38 analyte;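 further: SPR on a Carterra LSA, scFv-Fc captured by anti-human Fc on HC30M chip, His-tagged CD38 (human, mouse, cynomolgus) flowed as analyte in eight 1:2 steps from 400 nM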).

| Binder | Kd [nM] |
| --- | --- |
| B1 | 17.8 |
| B2 | 0.35 |
| B3 | 135 |
| B4 | 1.62 |
| B5 | 96400 |
| B6 | 11.4 |
| B7 | 11.5 |
| B8 | 4.4 |
| B9 | 154 |
| B10 | 59.5 |
| B11 | 2.11 |
| B13 | 2.34 |

These binders were tested against T5, human CD38 on transiently transfected Expi293 cells (Origene #SC321273) (human, UniProt P28907 1-300) (assay: flow cytometry, transfected Expi293 cells;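 further: antibody binding to Expi293 cells transiently expressing human or murine CD38, antibodies applied at 10 ug/ml for 60 min on ice, read by flow cytometry as percent gated cells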).
T5 construct: whole, on cells; also called Human (FACs)

| Binder | FACs 10 ug/ml (percent gated) [%] |
| --- | --- |
| B1 | 64.2 |
| B2 | 78.5 |
| B14 | 82.5 |
| B3 | 71.1 |
| B4 | 81.4 |
| B5 | 76.4 |
| B6 | 68.4 |
| B7 | 84.4 |
| B8 | 82 |
| B9 | 77.5 |
| B10 | 76.2 |
| B11 | 80.5 |
| B12 | 79.4 |
| B13 | 81 |

The binders below were run against T2, murine CD38 on transiently transfected … (assay: flow cytometry, transfected Expi293 cells;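 further: antibody binding to Expi293 cells transiently expressing human or murine CD38, antibodies applied at 10 ug/ml for 60 min on ice, read by flow cytometry as percent gated cells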).

| Binder | FACs 10 ug/ml (percent gated) [%] |
| --- | --- |
| B1 | 34 |
| B2 | 2.65 |
| B14 | 3.84 |
| B3 | 31.9 |
| B4 | 0.04 |
| B5 | 0.38 |
| B6 | 0.16 |
| B10 | 3.13 |
